Biological target: eOD-GT8 (engineered outer domain germline-targeting version 8), monomer (HIV-1 gp120 engineered outer domain, …)

Binder	binding result
G001_gp1_V10_VRC01c_182 (antibody, V domains shown) VH: QLQLVQSGAEVKKPGASVKVSCQASGFTFSGHYMHWVRQAPGHGLEWMGWINTNSGGTNYARKFQGRVTMTRDTSISTAYMELSRLRSDDTAVYYCATSVWFGASVWNFDNWGQGSLVTVSS VL: ENVLTQSPATLSLSPGERATLSCRASQSVSTHNLAWYQQKPGQAPRLLIYGVFSRATGIPDRFSGSGSGTDFTLTISSLEPEDTAVYYCQQYETFGQGTNVEIK	binds
G001_gp1_V10_VRC01c_2021-0093 (antibody, V domains shown) VH: QVQLVQSGAEVHNPGASVKVSCKASGYTFSDHYIHWVRQAPGQGLEWMGWINPNSGGTNYAQKFQGWVSMTRDTSITTAYMELSRLRSADTAVYYCAIPGICPGGNCYSYYFDSWGQGTLVSVSS VL: EIVLTQSPGTLSVSPGERATLSCRSSQSVSSLAWYQLKPGQAPRLLIYGAYNRAIGIPDRFSGSGSGTDFTLTISRLEPEDLAVYYCQQYEFFGQGTKLEIK	binds
G001_gp1_V10_VRC01c_169 (antibody, V domains shown) VH: QVHLVQSGAEVKKPGASVKVSCKASGYTFTDDYIHWLRQAPGQGLEWMGWINPYSGGTNYAQKFQGRVTMTRDTSINTAYMELSRLRSDDTAVYYCARYQSTFYFDYWGQGTLVTVSS VL: DFQMTQSPSTLSASVGDRVTITCRASQSLSSWLAWYQQKPGKAPKLLIYKASSLESGVPSRFSGSGSGTEFTLTISSLQPDDSATFYCQQYETFGQGTKLEIK	binds
G001_gp1_V10_VRC01c_173 (antibody, V domains shown) VH: QVQLVQSGADVKKPGASVKVSCKASGYTLTGYYMHWVRQAPGQGLEWMGWINANSGGTNYAQKFQGRVTMTRDTSISTVYMELSRLRSDDTAVYYCAHRAGYCSGGGCSWYFDLWGRGTLVTVSS VL: DIQMTQSPSTLSASVGDRVTITCRASQSSSGWLAWYQQKPGKAPKLLIYKASSLESGVPSRFSGSGSGTEFTLTISSLQPDDFATYYCQQYEAFGQGTKVEIK	binds
G001_gp1_V10_VRC01c_177 (antibody, V domains shown) VH: not shown VL: DIQMTQSPSTLSASVGDRVTITCRASQTISSWLAWYQQKPGKAPKLLIYDASSLESGVPSRFSGSGSGTEFTLTITSLQPDDFATYYCQQYETFGPGTKVDIK	binds
G001_gp1_V10_VRC01c_2021-0086 (antibody, V domains shown) VH: not shown VL: EIVMTQSPATLSVSPGERATLSCRASQSVSSNLAWYQQKPGQAPRLLIYGASTRATGIPARFSGSGSGTEFTLTISSLQSEDFAVYYCQQYQTFGQGTKLEIK	binds
G001_gp1_V10_VRC01c_2021-0096 (antibody, V domains shown) VH: not shown VL: EIVMTQSPATLSVSPGERATLSCRASQSVSSNLAWYQQKPGQAPRLLIYGASTRATGIPARFSGSGSGTEFTLTISSLQSEDLAVYYCQQYTAFGQGTKVEIK	binds
G001_gp1_V10_VRC01c_2021-0090 (antibody, V domains shown) VH: not shown VL: DNQMTQSPSSLSASVGDRVTITCRASQGISNSLAWYQQKPGKAPKLLLYASSRLESGVPSRFSGSGSGTDYTLTISSLQPEDFATYYCQQYETFGQGTKVEIK	binds
G001_gp1_V10_VRC01c_2021-0088 (antibody, V domains shown) VH: QVQLVQSGAEVKKPGASVKVSCKASGYTFTGYYMHWVRQAPGQGLEWMGWINPNSGGTNYAQKFQDWVTMTRDTSISTAYMELSRLRSDDTAVYFCARVKGHYDSSGGWNFDLWGRGTLVTVSS VL: not shown	binds
G001_gp1_V10_VRC01c_168 (antibody, V domains shown) VH: QVQLVQSGAEVKKPGASVKVSCKASGYTFTGYHIHWVRQAPGQGLEWMGWINPNSGGTNYARKFQGRVTMTRDTSISTAYMELSRLNSDDTAVYYCAFPLGIRTTGRSWYFDLWGRGTLVTVSS VL: DIQMTQSPSSLSASVGDRVTITCQASQDISNYLNWYQQKPGKAPKILIYDASNLETGVPSRFRGSGSGTDFTFTISSLQPEDIATYYCQQYETFGGGTKVEIK	binds
G001_gp1_V10_VRC01c_181 (antibody, V domains shown) VH: not shown VL: DIQMTQSPSSLSASVGDRVTITCQASQDISNYLNWYQQKPGKAPKLLIYYASNLETGVPSRFSGSGSGTDFTFTISSLQPEDIATYYCQQYGTFGQGTKLEIK	binds
G001_gp1_V10_VRC01c_174 (antibody, V domains shown) VH: QVQLVQSGAEVKKPGATVKVSCKASGYTLTDYYMHWVRQAPGQGLEWMGWMNPNSGGTNYGRKFQGRVTMTRDTSINTAYMELSRLRSDDTAVYFCARAREKWPFDYWGQGTLVTVSS VL: DIQMTQSPASLSASVGDRVTITCQASQDISNYVNWYQQKPGKAPKLLINGASNLETGVPSRFSGSGSGTDFTFTISSLQPEDIATYYCQQYENFGPGTKVDIK	binds
G001_gp1_V10_VRC01c_176 (antibody, V domains shown) VH: QVQLVQSGAEVKRPGASVKVSCRASGYTFTGYYMHWVRQAPGQGLEWMGWINPNSGGTNYAQKFQGRVTMTRDTSITTAYMELSRLNYDDTAVYYCARGDDSSAWRFHSWGQGTLITVSS VL: DIQMTQSPSSLSASVGDRVTITCQASQDSSNYLNWYQQKPGKAPKLLIYDASNLETGVPSRFSGSGSGTDFTFTISSLQPEDIATYYCQQYETFGGGTKVEIK	binds
G001_gp1_V10_VRC01c_2021-0095 (antibody, V domains shown) VH: not shown VL: DIQMTQSPSSLSASVGDRVTITCQASQDISNYLNWYQQKPGKAPQLLIYDASNLETGVPSRFSGRGSGTDFTFTISSLQPEDIATYYCQQYDTFGQGTRLEIK	binds
G001_gp1_V10_VRC01c_175 (antibody, V domains shown) VH: not shown VL: DIQMTQSPSSLSASVGDRVTITCQASQDISNYLNWYQQKPGKAPKLLIYDASNLETGVPSRFSGSGSGTDFTFTISSLQPEDIATYYCQQWDTFGQGTKLEIK	binds
G001_gp1_V10_VRC01c_2021-0094 (antibody, V domains shown) VH: QVQLVQSGAEVKKPGASVKVSCKASGYTFTGYYMHWVRQAPGQGLEWMGWINPNSGGTNYAEKFQGWVTMTRDTSISTAYMELRRLKSDDTAVYYCATSLGGNPGRIWDMDVWGQGTTVTVSS VL: QSALTQPASVSGSPGQSITISCTGTSSDVGGYNFVSWYQQHPGKAPKLIIYDVTNRPSGVSNRFSGSKSGNTASLTISGLQAEDEANYYCSSYEVFGTGTKVTVL	binds
G001_gp1_V10_VRC01c_167 (antibody, V domains shown) VH: QVQLVQSGAEVKKPGASVKVSCKASGYTFTGYYMHWVRQAPGQGLEWMGWINPNSGGTNYAQKFQGRVTMTRDTSITTAYMELTRLISDDTAVYYCASPASIPAAGSFAFDIWGQGTMVTVSS VL: EIVLTQSPGTLSLSPGERATLSCRASQSVGSSYLTWYQQKPGQAPRLLIYGASSRATGIPDRFSGSGSGTDFTLTISGLEPEDFAVYYCQQYETFGQGTKVEIK	binds
G001_gp1_V10_VRC01c_172 (antibody, V domains shown) VH: QVQLVQSGAEVKKPGASVKVSCKASGYTFTGYYFYWVRQAPGQGLEWMGWINPNSGGTNSPQKFQGRVSMTRDTSISTAYMEVSSLRSDDTAVYYCARRFTSMGVALDYWGQGTLVTVSS VL: EIVLTQSPGTLSLSPGERATLSCRASQSVSSSSLAWYQQKPGQAPRLLIFGTSSRATGIPDRFSGSGSGTDFTLTISRLEPEDFAVYYCQQYDSFGQGTRLEIK	binds
G001_gp1_V10_VRC01c_183 (antibody, V domains shown) VH: QVHPVQSGAEVKKPGASVKVSCEASGYTFSGYYMHWVRQAPGQGLEWMGWINLNSGGTNYAQKFQDRVTMTRDTSISTAYMELSSLRSDDTAFYYCAHNGGNGGTWYFHYWGQGTLVTVSS VL: EIVLTQSPGTLSLSPGERATLSCRASQSVSNNYLAWYQQKPGQAPRLLIYGASRRATGIPDRFSGSGTGTDFTLTISRLEPEDSAVYYCQQYETFGPGTKVDIK	binds
G001_gp1_V10_VRC01c_2021-0092 (antibody, V domains shown) VH: QVQLVQSGAEVKKPGASVKVSCKASGYTFTGYYMHWVRQAPGHGLEWMGWINPNSGGSNYAQRFQGWVTMTRDTSISTAYMELTRLRSDDTAVYYCARELLAAAGTVFDYWGQGTLVTVSS VL: EIVLTQSPGTLSLSPGERATLSCRASQSVSSSYLAWYQQKPGQAPRLLIYGASSRATGIPDRFSGSGSGTDFTLTISRLEPEDFAVYYCQQYETFGQGTKVEIN	binds
G001_gp1_V10_VRC01c_2021-0098 (antibody, V domains shown) VH: QVQLVQSGAEVKKPGASVKVSCKASGNTFSGYYMHWVRQAPGQGLEWMGWINPNSGGTNYAQKFQGWVTMTRDTSISTAYMELSRLRSDDTAVYYCARGGRSAYYSWWFDPWGQGTLVTVSS VL: EIVLTQSPGTLSLSPGERATLSCRASQSVSSSYLAWYQQKPGQAPRLLIYGAFSRATGIPDRFSGSGSGTDFTLTISRLEPEDFAVYYCQQWETFGQGTKVEIK	binds
G001_gp1_V10_VRC01c_2021-0097 (antibody, V domains shown) VH: QVQLVQSGAEVKKPGASVKVSCKASGHTFTGYYMHWVRQAPGQGLEWMGWINSNSGGTNYAQKFQGWVTMTRDTSINTVYMELNRLTSDDTAVYYCAGGGRSTYYSWWFDPWGQGTLVTVSS VL: EIVLTQSPGTLSLSPGERATLSCRASQSVSSSYLAWYQQKPGQAPRLLIYGASSRATGIPDRFSGSGSGTDFTLTISRLEPEDLAVYYCQQWETFGQGTKVEIK	binds
G001_gp1_V10_VRC01c_170 (antibody, V domains shown) VH: QVQLVQSGAEVKKPGASVKVSCKASGYTFTDYYMHWVRQAPGQGLEWMGWINPNSGGTNYAQKFQDRVTMTRDTSISTGYMELRRLRSDDTAVYYCASHHLTSQGPWWFDPWGQGTLLTVSS VL: EIVLTQSPGTLSLSPGERATLSCRASQSVSSSYLVWYQQKPGQAPRLLIYGASSRATGIPDRFSGRGSGTDFTLTISRLESEDFAVYFCQQYETFGQGTKVEIK	binds
G001_gp1_V10_VRC01c_184 (antibody, V domains shown) VH: QVQLVQSGAEVKKPGASVKVSCKASGYTFTAYYMHWVRQAPGQGLEWMGWINPNSGGTNYAQKFQGRVTMTRDTSITTAYMELSRLRSDDTAVYYCAIESVVRHSWFDPWGQGTLVTVSS VL: EIVLTQSPGTLSLSPGERATLSCRASQNVSSSYLAWYQQKPGQAPRLLIYYASIRATGIPDRFSGSGSGTAFTLTISRLEPEDFAVYYCQQYEAFGQGTKVEIK	binds
G001_gp1_V10_VRC01c_171 (antibody, V domains shown) VH: QVQLVQSGAEVKRPGASVKVSCKASGYTFTDYYIHWVRQAPGQGLEWMGWINPNSGGTNYARKFQGRVTMTRHTSIGTAYMELSRLRSDDTAVYYCARHIVAAGTWAFDIWGQGTMVTVSS VL: EIVLTQSPGTLSLSPGERATLSCRASQSVSSSYLAWYQQKPGQAPRLLIYGASSRATGIPDRFRGSGSGTDFTLTISRLEPEDFAVYYCQQYETFGQGTKVEIK	binds

Reference: article PMC12377726 (Proceedings of the National Academy of Sciences of the …, 2025)
